Measurements: publication PMC3471226 (The Journal of Cell Biology, 2012)

T1: GST-Tiam1-PDZ4 (mouse, UniProt Q60610 765-1234)
T1 sequence: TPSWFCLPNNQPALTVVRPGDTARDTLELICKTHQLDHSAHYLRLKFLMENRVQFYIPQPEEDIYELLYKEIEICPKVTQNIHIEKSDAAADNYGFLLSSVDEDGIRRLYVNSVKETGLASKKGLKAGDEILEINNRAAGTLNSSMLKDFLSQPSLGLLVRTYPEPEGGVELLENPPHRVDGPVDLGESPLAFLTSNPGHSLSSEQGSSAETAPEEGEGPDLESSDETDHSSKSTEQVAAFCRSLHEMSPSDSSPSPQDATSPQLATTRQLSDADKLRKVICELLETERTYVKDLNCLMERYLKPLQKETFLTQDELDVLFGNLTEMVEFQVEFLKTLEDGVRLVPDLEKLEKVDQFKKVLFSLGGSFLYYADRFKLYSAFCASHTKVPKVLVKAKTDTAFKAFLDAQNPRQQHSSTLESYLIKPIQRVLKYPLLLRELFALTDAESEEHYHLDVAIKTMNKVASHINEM


Assays:
[1] = target: GST-talin1 A366/368 (mouse) (UniProt P26039); assay: pull-down
GST-Tiam1-PDZ4 = target: T1, GST-Tiam1-PDZ4; assay: SPR

Row | decrease of association relative to wild type [1] | Kd (GST-Tiam1-PDZ4) | Molecule
1 | 90% |  | Tiam1-C1199-HA (from UniProt Q60610 1-1591) (domain or fragment)
2 |  | ~430 nM | His-talin1 (1–433 aa) (domain or fragment, mouse, UniProt P26039 1-433, looked up) MVALSLKISIGNVVKTMQFEPSTMVYDACRMIRERIPEALAGPPNDFGLFLSDDDPKKGIWLEAGKALDYYMLRNGDTMEYRKKQRPLKIRMLDGTVKTIMVDDSKTVTDMLMTICARIGITNHDEYSLVRELMEEKKDEGTGTLRKDKTLLRDEKKMEKLKQKLHTDDELNWLDHGRTLREQGVEEHETLLLRRKFFYSDQNVDSRDPVQLNLLYVQARDDILNGSHPVSFDKACEFAGFQCQIQFGPHNEQKHKAGFLDLKDFLPKEYVKQKGERKIFQAHKNCGQMSEIEAKVRYVKLARSLKTYGVSFFLVKEKMKGKNKLVPRLLGITKECVMRVDEKTKEVIQEWSLTNIKRWAASPKSFTLDFGDYQDGYYSVQTTEGEQIAQLIAGYIDIILKKKKSKDHFGLEGDEESTMLEDSVSPKKSTVLQ
